Assay results published in patent US20250145729A1 (DENALI THERAPEUTICS, published 2025).
Numbering of substitutions follows the chain as printed. In names and notes the source's numbering stands.

T1: human CD98hc (human, UniProt P08195 109-529)
T1 construct: also called huCD98hc; CD98 heavy chain
T1 sequence: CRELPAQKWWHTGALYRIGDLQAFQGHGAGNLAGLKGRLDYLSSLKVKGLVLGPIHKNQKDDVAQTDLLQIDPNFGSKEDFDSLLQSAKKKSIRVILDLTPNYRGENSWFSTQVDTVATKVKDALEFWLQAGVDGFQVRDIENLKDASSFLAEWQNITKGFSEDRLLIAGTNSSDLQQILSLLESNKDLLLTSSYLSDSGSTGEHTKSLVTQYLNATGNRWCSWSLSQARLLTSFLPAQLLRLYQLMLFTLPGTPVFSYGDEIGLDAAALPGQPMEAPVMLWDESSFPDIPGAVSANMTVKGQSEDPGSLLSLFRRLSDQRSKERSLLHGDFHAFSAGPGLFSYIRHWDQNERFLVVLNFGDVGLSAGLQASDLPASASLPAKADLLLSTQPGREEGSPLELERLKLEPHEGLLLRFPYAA

T2: circularly permuted human TfR apical domain (human)
T2 construct: TfR residues 326-379 stand N-terminal to 194-296, loop 297-325 deleted; also called huTfR Apical Domain
T2 chain: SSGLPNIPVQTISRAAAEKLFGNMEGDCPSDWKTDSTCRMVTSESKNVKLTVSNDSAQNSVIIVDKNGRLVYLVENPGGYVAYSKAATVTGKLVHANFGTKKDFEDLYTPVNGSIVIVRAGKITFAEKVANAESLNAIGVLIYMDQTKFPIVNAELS

T3: circularly permuted cyno TfR apical domain (cynomolgus monkey)
T3 construct: same design as the human construct; also called cyTfR Apical Domain; cynomolgus TfR apical domain
T3 chain: T2 chain with R39K, S45N, N47S, R69G, Y108D, T109S, N153K, E155D

B1: LLB2-10-8.d27 (Fc fusion)
chain: APELLGGPSVFLFPPKPKDTLMISRTPEVTCVVVDVSHEDPEVKFNWYVDGVEVHNAKTKPREEQYNSTYRVVSVLTVLHQDWLNGKEYKCKVSNKALPAPIEKTISKAKGQPREPQVYTLPPSRDELTKNQVSLTCLVKGFYPSDIAVLWNSRFQPENNYKTTPPVLDSDGSFFLYSKLTVDKSRWQQGNVFACNVYHEALHNHYTFKNLALSPGK
notes: Fc part only
B2: LLB2-10-8.d31 (Fc fusion)
chain: B1 chain with R154Q, F155Y, P157L
notes: Fc part only
B3: LLB2-10-8.d29 (Fc fusion)
chain: B1 chain with N152S, P157L
notes: Fc part only
B4: LLB2-10-8.d32 (Fc fusion)
chain: B1 chain with N152S, R154Q, Q156E, P157L
notes: Fc part only
B5: LLB2-10-8.d28 (Fc fusion)
chain: B1 chain with N152S, F155Y, Q156V, P157L
notes: Fc part only
B6: LLB2-10-8.d30 (Fc fusion)
chain: B1 chain with R154Q, Q156E, P157L
notes: Fc part only
B7: 42.2.1.2 mono (Fc fusion)
chain 1: APEAAGGPSVFLFPPKPKDTLMISRTPEVTCVVVDVSHEDPEVKFNWYVDGVEVHNAKTKPREEQYNSTYRVVSVLTVLHQDWLNGKEYKCKVSNKALGAPIEKTISKAKGQPREPQVYTLPPSRDELTKNQVSLWCLVKGFYPSDIAVEWFYDDSKLTNYKTTPPVLDSDGSFFLYSKLTVDKSRWQQGNLFACEVMHEALHNHYTYKLLSLSPGK
chain 2: APEAAGGPSVFLFPPKPKDTLMISRTPEVTCVVVDVSHEDPEVKFNWYVDGVEVHNAKTKPREEQYNSTYRVVSVLTVLHQDWLNGKEYKCKVSNKALGAPIEKTISKAKGQPREPQVYTLPPSRDELTKNQVSLSCAVKGFYPSDIAVEWESNGQPENNYKTTPPVLDSDGSFFLVSKLTVDKSRWQQGNVFSCSVMHEALHNHYTQKSLSLSPGK
notes: knob+P329G+LALA with TfR site, hole+P329G+LALA without
B8: 42.2.3.4 mono (Fc fusion)
chain 1: B7 chain 1 with Y153A, D154G, D155G, S156G, L158E
chain 2: B7 chain 2
notes: as for B7
B9: 42.2.5.2 mono (Fc fusion)
chain 1: B7 chain 1 with Y153S, D155G, L158E, Q189P, G190R, N191G, S212G, L213E
chain 2: B7 chain 2
notes: as for B7
B10: 42.2.3.3 mono (Fc fusion)
chain 1: B7 chain 1 with Y153T, D155N, S156Y, L158E
chain 2: B7 chain 2
notes: as for B7
B11: 42.2.3.1H mono (Fc fusion)
chain 1: B7 chain 1 with D154G, D155N, S156A, L158E
chain 2: B7 chain 2
notes: as for B7
B12: 42.2.7.2 mono (Fc fusion)
chain 1: B7 chain 1 with Y153S, D155G, L158E, H203E, N204G
chain 2: B7 chain 2
notes: M428 kept here
B13: 42.2.1.20 mono (Fc fusion)
chain 1: B7 chain 1 with Y153A, D155A, L158Q, T159R
chain 2: B7 chain 2
notes: as for B7
B14: 42.2.5.4 mono (Fc fusion)
chain 1: B7 chain 1 with Y153S, D155G, L158E, G190Q, N191G, S212G, L213Y
chain 2: B7 chain 2
notes: as for B7
B15: 42.2.3.1C mono (Fc fusion)
chain 1: B7 chain 1 with Y153G, D154T, D155N, S156K, L158E
chain 2: B7 chain 2
notes: as for B7
B16: 42.2.3.5 mono (Fc fusion)
chain 1: B7 chain 1 with D154G, D155N, S156G, L158E
chain 2: B7 chain 2
notes: as for B7

What follows are binders tested against T1, human CD98hc (assay: SPR (Biacore)).
Procedure: Variants that bound with measurable affinity from this round of engineering are shown in Table A12 and the corresponding human binding affinity by surface plasmon resonance (SPR) using a Biacore™ machine are shown in Table 9B. Cell binding of the clones was also tested in HeLa cells for huCD98hc binding and CHO cells as a negative control.

binding result	Kd [nM]	Binder
no binding	–	B1
–	460	B2
–	1300	B3
–	3100	B4
–	4200	B5
–	1000	B6

Target: T2, circularly permuted human TfR apical …
Test: method not named for this table (Biacore elsewhere)

Kd [nM]	Binder
284	B7
181	B8
180	B9
360	B10
220	B11
162	B12
440	B13
400	B14
1000	B15
260	B16

Target: T3, circularly permuted cyno TfR apical …
Test: as above

Kd [nM]	Binder
7000	B7
4000	B8
2000	B9
8000	B10
2000	B11
10000	B12
7000	B13
6500	B14
10000	B15
1800	B16
